The values below come from US20260137802A1 (CRISPR THERAPEUTICS, published 2026).

B1: P27 (VHH)
VHH: EVQLVESGGGLVRAGGSLRLSCAASGRTTFSTYWLGWFRQAPGKNREFVAAISWSAGMAYYQDSKGRFTISRDNTKNTAYLQMNSLQPEDTAVYYCAAGRFHPIRVDTALYWAQGTQVTVSS
notes: also called P27/P60; anti-CD117 VHH P27
B2: P35 (VHH)
VHH: QVQLVESGGGLVQAGGSLRLSCAASGGTFSIYPVGWFRQAPGKQREFVAAIGWSASGTYYGDSVEGRFTVSRDNARSTVYLRMSSLKPDDTAVYYCAAASGSNWRLGAIDEYDSWGQGTQVTVSS
notes: also called anti-CD117 VHH P35
B3: P32 (VHH)
VHH: QVQLVESGGGLVQAGDSLRLSCAASGRTFSSYAMGWFRQAPGKEREFVASITSSGLVAYYGDSVEARFTISRDNAKNTVYLQMDSLKPEDTAVYYCAARQYVGSGSYYLKKEGGYEYWGPGTQVTVSS
notes: also called anti-CD117 VHH P32
B4: P31 (VHH)
VHH: EVQLVESGGGLVRAGGSLRLSCAASGRTFTYDARAWFRQAPGKEREFVAAISWSGGSTYYPNSMKGRFTISRDNAKNTVYLQMNSLKPEDTAVYYCAADESFPAYYSDYALYRYWGQGTLVTVSS
notes: also called P31/P55; anti-CD117 VHH P31
B5: P10 (VHH)
VHH: QVQLVESGGGLVQAGGSLRLSCVASGRTFSSYAMGWFRQGPGKEREFAAAILSNGLTTYYADSVKGRFTISRDNAKDTVYLQMNSLKPEDTANYYCAAAFTPEFRDGGIWDDASVDYWGQGTQVTVSS
notes: also called P10/P53; anti-CD117 VHH P10
B6: P38 (VHH)
VHH: EVQLVESGGGLVQAGGSLRLSCAASGRTSGSYVMGWFRQAPGKEREFVAAISWSAGMTYYADSVKGRFTISRDNAKNTVYLQMNSLKPEDTAVYYCAADQRGVPAYYSDYALYDYWGQGTQVTVSS
notes: also called P38/P72; anti-CD117 VHH P38
B7: P-0060 (Fc fusion)
chain: B1 VHH
notes: also called P60; bivalent form of P27; not shown: Fc fragment
B8: P-0058 (Fc fusion)
chain: QVQLVESGGGLVQAGDSLRLSCAVSGRTLSNYFMAWLRQAPGKEREFVAAIHWSLGSTYYQDPVKGRFTISRDKAKNTVYLQMNTLKPEDTATYICAAGQHLSGLGGSAWSIEGDYWGQGTQVTVSS
notes: also called P58; bivalent form of P37; not shown: Fc fragment
B9: P-0056 (Fc fusion)
chain: B2 VHH
notes: the alignment instead labels 'P35/P57' and 'P32/P56'; also called P56; not shown: Fc fragment
B10: P-0057 (Fc fusion)
chain: B3 VHH
notes: the alignment instead labels 'P35/P57' and 'P32/P56'; also called P57; not shown: Fc fragment
B11: P-0055 (Fc fusion)
chain: B4 VHH
notes: also called P55; bivalent form of P31; not shown: Fc fragment
B12: P-0054 (Fc fusion)
chain: QVHLVESGGGLVQAGGSLGLSCAASGHTFSNYAMGWFRQAPGKEREFVAAISWSGGSTLYADSVKGRFTISRDNGENTVYLQMNSLKPEDTAVYYCALDSTGVYGTGYVSSRKGRYEYWGQGTLVTVSS
notes: also called P54; bivalent form of P29; not shown: Fc fragment
B13: P-0053 (Fc fusion)
chain: B5 VHH
notes: also called P53; bivalent form of P10; not shown: Fc fragment
B14: P-0059 (Fc fusion)
chain: QVQLVESGGGLVQAGGSLRLSCTASGDTFSSYSMGWFRQGPGKEREFVGGIRWSGGTTYYADSVKGRFTISRDNAKNTVYLQMNSLKREDTAVYYCAAVRRRWLIWQEEEYDYWGQGTLVTVSS
notes: also called P59; bivalent form of P12; not shown: Fc fragment
B15: P-0072 (Fc fusion)
chain: B6 VHH
notes: also called P72; bivalent form of P38; not shown: Fc fragment
B16: P-0029 (Fc fusion)
chain: B12 chain
notes: Any second Fc chain without VHH is not described in the text; also called monovalent form of P29; not shown: Fc fragment
B17: P-0012 (Fc fusion)
chain: B14 chain
notes: Any second Fc chain without VHH is not described in the text; also called monovalent form of P12; not shown: Fc fragment
B18: P-0032 (Fc fusion)
chain: B3 VHH
notes: Any second Fc chain without VHH is not described in the text; also called monovalent form of P32; not shown: Fc fragment

Bounds are passed on as bounds.

The target of one experiment is T1, truncated CD117 ectodomain, Domain 1 (UniProt P10721 26-112, limits assumed, biotinylated).
T1 construct: domain: Domain 1; not shown: AviTag
T1 sequence (P10721 26-112 limits assumed): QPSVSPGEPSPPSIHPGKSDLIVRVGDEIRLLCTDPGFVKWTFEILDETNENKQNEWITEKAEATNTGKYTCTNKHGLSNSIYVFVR
The experiment can be described thus: BLI, truncated ectodomain on SA biosensor. How it is done: To identify the approximate binding epitopes of the VHH antibodies, truncated ectodomains were expressed as fusion polypeptides with an AviTag. Additionally, biotin is added to the protein during expression to allow capture of the material onto Streptavidin-coated (SA) biosensors. SA biosensors (Sartorius) were incubated with one of the truncated ectodomains. Full length CD117 ectodomain was used as a control. […] Except for P29 and P37, all others bind Domains 1-2 and Domains 1-3. Except for P37, all others bind Domains 1-4.
As for B1, the binding result is recorded as “no binding”.
For the molecule B2, the binding result is “no binding”.
B3: the binding result is “no binding”.
Consider B4, for which the binding result is recorded as “no binding”.
As to B5, the binding result is given as “no binding”.
In the case of B6, the binding result is given as “no binding”.

For the next experiment, the target named is T2, human CD117 ectodomain (human, UniProt P10721 26-524, biotinylated (BirA co-expression) where captured on streptavidin biosensors).
T2 construct: extracellular domain; also called cKIT; full length AviTagged CD117 ectodomain; not shown: C-terminal AviTag or His tag
T2 sequence (P10721 26-524): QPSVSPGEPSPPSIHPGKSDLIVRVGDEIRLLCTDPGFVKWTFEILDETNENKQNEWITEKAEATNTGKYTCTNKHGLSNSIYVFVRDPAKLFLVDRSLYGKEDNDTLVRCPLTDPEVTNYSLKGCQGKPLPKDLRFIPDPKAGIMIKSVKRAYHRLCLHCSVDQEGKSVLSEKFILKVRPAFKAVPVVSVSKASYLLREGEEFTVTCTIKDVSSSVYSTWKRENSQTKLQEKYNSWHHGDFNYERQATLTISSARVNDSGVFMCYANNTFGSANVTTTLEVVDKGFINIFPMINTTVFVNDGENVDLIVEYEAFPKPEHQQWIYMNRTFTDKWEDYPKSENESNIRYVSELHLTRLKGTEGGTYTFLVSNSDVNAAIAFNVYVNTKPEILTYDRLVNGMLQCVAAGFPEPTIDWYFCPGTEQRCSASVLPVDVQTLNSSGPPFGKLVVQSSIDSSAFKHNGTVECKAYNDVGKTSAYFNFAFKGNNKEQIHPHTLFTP
The experiment can be described thus: ELISA, human CD117, bivalent Fc fusion.
B7 registered a Kd of 0.14 nM.
On the same count and under the same terms, with B8 the figure was 0.33 nM.
With B9, the Kd came to 0.36 nM.
With B10, the Kd is 0.21 nM.
B11 registered a Kd of 0.22 nM.
As to B12, the Kd is 0.54 nM.
B13 gave a Kd of 0.16 nM.
On the same count and under the same terms, with B14 the figure was 0.06 nM.
B15 returned a Kd of 0.21 nM.

The target in the next experiment is T3, human CD117 on cells (SKMEL-3 cells, CD34+ HSC) (human, UniProt P10721 26-976).
T3 construct: whole, on cells; also called CD117 on cell surfaces; CD117+ cells
T3 sequence (P10721 26-976): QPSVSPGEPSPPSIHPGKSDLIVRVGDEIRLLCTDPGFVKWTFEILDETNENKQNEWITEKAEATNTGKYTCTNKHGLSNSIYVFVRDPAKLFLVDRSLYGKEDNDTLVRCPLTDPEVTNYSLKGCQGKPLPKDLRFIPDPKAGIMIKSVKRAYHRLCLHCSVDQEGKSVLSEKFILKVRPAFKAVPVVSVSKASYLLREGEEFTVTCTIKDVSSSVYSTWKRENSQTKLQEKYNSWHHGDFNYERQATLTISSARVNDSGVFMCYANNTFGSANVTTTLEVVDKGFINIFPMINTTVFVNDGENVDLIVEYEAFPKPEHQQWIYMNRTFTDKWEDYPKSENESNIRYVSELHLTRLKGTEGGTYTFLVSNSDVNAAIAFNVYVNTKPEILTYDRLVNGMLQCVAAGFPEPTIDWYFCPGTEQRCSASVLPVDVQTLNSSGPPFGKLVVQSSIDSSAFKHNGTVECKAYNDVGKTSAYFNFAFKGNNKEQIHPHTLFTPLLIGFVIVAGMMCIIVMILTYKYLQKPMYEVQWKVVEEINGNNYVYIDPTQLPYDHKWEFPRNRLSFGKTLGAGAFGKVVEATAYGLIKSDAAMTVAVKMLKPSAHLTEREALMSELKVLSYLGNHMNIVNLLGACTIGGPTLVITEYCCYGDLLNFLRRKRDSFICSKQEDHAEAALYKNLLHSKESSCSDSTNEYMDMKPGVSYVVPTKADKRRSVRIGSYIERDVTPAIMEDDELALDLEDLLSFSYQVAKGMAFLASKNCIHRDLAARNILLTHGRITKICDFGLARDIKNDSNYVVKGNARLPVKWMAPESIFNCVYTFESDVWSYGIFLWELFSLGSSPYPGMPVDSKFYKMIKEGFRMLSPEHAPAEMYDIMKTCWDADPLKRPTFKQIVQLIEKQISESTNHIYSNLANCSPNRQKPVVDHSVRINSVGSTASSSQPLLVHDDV
The experiment can be described thus: flow cytometry, CD34+ HSC, bivalent Fc.
For B7, the EC50 stood at 2 nM.
Molecule B8 had an EC50 of 50 nM.
On to B9, for which it took 10 nM to reach a half-maximal effect (EC50).
Same read-out and setting: with B11 the figure was 1 nM; with B12, above 50 nM.
On the same count and under the same terms, with B13 the figure was 1 nM.
For B14, the EC50 was 50 nM.
Same read-out and setting: with B15 the figure was 2 nM.

The next experiment has as its target T3, human CD117 on cells (SKMEL-3 cells, …). The experiment can be described thus: flow cytometry, CD34+ HSC, monomeric Fc.
B16 showed an EC50 of 50 nM.
In turn, B17 registered an EC50 above 10 nM.

The next experiment concerns the target T2, human CD117 ectodomain. Kind of experiment: ELISA, human CD117, monovalent Fc fusion.
As to B18, the Kd is 1.49 nM.
In turn, B16 came in with a Kd of 2.48 nM.
Still for that read-out and setting: with B17 the figure was 1.04 nM.

Another experiment addresses T3, human CD117 on cells (SKMEL-3 cells, …). The experiment can be described thus: flow cytometry, skMEL-3 cells, bivalent Fc.
For B7, it took 2 nM to reach a half-maximal effect (EC50).
B8 returned an EC50 of 3 nM.
Still for that read-out and setting: with B9 the figure was 3 nM.
The molecule B11 had an EC50 of 1 nM.
The same measure, in the same setting: with B12 the figure was above 50 nM; with B13, 1 nM; with B14, 50 nM.
The same measure, in the same setting: with B15 the figure was 1 nM.

The target is the same in another experiment. Kind of experiment: flow cytometry, skMEL-3 cells, monomeric Fc.
As to B16, the EC50 is above 50 nM.
B17 registered an EC50 above 10 nM.

The next experiment concerns the target cynomolgus monkey CD117 ectodomain (cynomolgus monkey). Kind of experiment: BLI (Octet), biotinylated ectodomain on SA biosensor, 1:1 global fit, bivalent Fc.
B7 registered a Kd of 2.16 nM.
For the molecule B8, the Kd is 0.00166 nM.
B9 had a Kd of 0.647 nM.
In turn, B10 displayed a Kd of 1.7 nM.
For the molecule B11, the Kd is 0.961 nM.
For B12, the Kd is 19.8 nM.
Still for that read-out and setting: with B13 the figure was 0.00136 nM; with B14, 0.0112 nM.
The molecule B15 displayed a Kd of 0.0112 nM.

For the next experiment the target is unchanged. Kind of experiment: BLI (Octet), biotinylated ectodomain on SA biosensor, 1:1 global fit, monomeric Fc.
Molecule B18 had a Kd of 8.01 nM.

The target of a further experiment is T2, human CD117 ectodomain. Kind of experiment: BLI (Octet), biotinylated ectodomain on SA biosensor, 1:1 global fit, bivalent Fc. From the text: (§1) Pre-equilibrated streptavidin biosensors (SA, from Sartorius) were coated with biotinylated CD117 ectodomain by dipping the biosensors into wells containing an optimized dilution of human or cyno CD117 ectodomain. After re-equilibrating the biosensor tips in assay buffer, the biosensors were dipped into supernatant containing the VHH antibodies to allow association between the antibodies and the CD117 ectodomain. Finally, the biosensors were dipped into the assay buffer. The VHH antibodies disassociated from the CD117 ectodomain if association occurred. The association and dissociation of each VHH antibody was characterized qualitatively to identify VHHs that could bind both human and cyno CD117 ectodomains.
(§2) For example, kinetics parameters of the top VHH antibodies for binding to human CD117 and cynomolgus monkey CD117 ectodomain were obtained from the Octet® analysis by Biolayer Interferometry as described above. A minimum of three concentrations of purified VHH antibodies were tested per ectodomain target. The Octet® software was used to perform a global kinetic fit across all concentrations using a 1:1 binding model. This allowed determination of the kinetic parameters, association rate (kₒₙ), dissociation rate (koff) and equilibrium constant (KD) for the 9 antibodies of interest. Total chi-squared (X²) was also examined to determine the goodness of fit for the software's kinetic model.
The molecule B7 returned a Kd of 0.24 nM.
B8 registered a Kd of 0.00189 nM.
Same read-out and setting: with B9 the figure was 0.602 nM; with B10, 0.00215 nM; with B11, 0.00124 nM.
B12 yielded a Kd of 0.00682 nM.
For B13, the Kd was below 0.001 nM.
Still for that read-out and setting: with B14 the figure was 0.0446 nM; with B15, 0.00126 nM.

Another experiment has as its target T2, human CD117 ectodomain. Kind of experiment: BLI (Octet), biotinylated ectodomain on SA biosensor, 1:1 global fit, monomeric Fc.
Excerpt: as §1, §2
The molecule B18 had a Kd of 1.86 nM.
In turn, B16 registered a Kd of 37.4 nM.
For B17, the Kd worked out at 49.2 nM.
